Assay results from patent US20240401239A1 (US Dept. of Health and Human Services, published 2024).
Read-outs that look alike come from different tables or passages of the source.

Columns and labels:
[1] = target: SARS-COV-2 S protein, variant B1.1.7 (Alpha), on MLV pseudotyped particles (SARS-COV-2, UniProt P0DTC2 14-1254); experiment: cell-based or functional assay
[2] = target: T1, RBD-His (SinoBiological, 40592-V08H) (SARS-COV-2, UniProt P0DTC2 319-541)
[3] = target: T1, RBD-His (SinoBiological, 40592-V08H); remark: listed apart in the source
[4] = target: T2, RBD-mFc recombinant protein (Sino Biological, 40592-V05H) (SARS-COV-2, UniProt P0DTC2 319-541); experiment: BLI (Octet), 1-2G-Fc as load, RBD-mFc as analyte, global fit (FIG. 11A)
T2 construct: domain: RBD

[5] = target: T2, RBD-mFc recombinant protein (Sino …); experiment: BLI (Octet), RBD-mFc as load, 1-2G-Fc as analyte, global fit (FIG. 11C)
[6] = target: T1, RBD-His (SinoBiological, 40592-V08H); remark: listed apart in the source
[7] = target: T1, RBD-His (SinoBiological, 40592-V08H); remark: listed apart in the source
[8] = target: T1, RBD-His (SinoBiological, 40592-V08H)
[9] = target: T2, RBD-mFc recombinant protein (Sino …)
[10] = target: T3, S1-hFc recombinant protein (Sino Biological, printed 4059I-V02H) (SARS-COV-2, UniProt P0DTC2 16-685)
[11] = target: T2, RBD-mFc recombinant protein (Sino …); remark: listed apart in the source
[12] = target: T3, S1-hFc recombinant protein (Sino …); remark: listed apart in the source

B1: RBD-1-2G-Tri (bispecific antibody)
chain: EVQLVESGGGLVQPGGSLRLSCAASGFSSIVYMGWFRQAPGKGRELVAAIDASGSTTNYPDSVEGRFTISRDNAKRMVYLQMNSLRAEDTAVYYCAIAYFTSPEYVVSQGWGQGTQVTVSSGGGGSGGGGSGGGGSEVQLVESGGGLVQPGGSLRLSCAASGFSSIVYMGWFRQAPGKGRELVAAIDASGSTTNYPDSVEGRFTISRDNAKRMVYLQMNSLRAEDTAVYYCAIAYFTSPEYVVSQGWGQGTQVTVSSGGGGSGGGGSGGGGSEVQLVESGGGLVQPGGSLRLSCAASGFSSIVYMGWFRQAPGKGRELVAAIDASGSTTNYPDSVEGRFTISRDNAKRMVYLQMNSLRAEDTAVYYCAIAYFTSPEYVVSQGWGQGTQVTVSSHHHHHH
[1]
  IC50, pseudotyped particle entry assay, B.1.1.7 particles: 0.3 nM
[2]
  koff: 7e-05 s⁻¹
  kon: 600000 M⁻¹ s⁻¹
[3]
  Kd: 0.1 nM

B2: RBD-1-2G-Fc (Fc fusion)
chain: EVQLVESGGGLVQPGGSLRLSCAASGFSSIVYMGWFRQAPGKGRELVAAIDASGSTTNYPDSVEGRFTISRDNAKRMVYLQMNSLRAEDTAVYYCAIAYFTSPEYVVSQGWGQGTQVTVSS
notes: also called bivalent format of RBD-1-2G
[1]
  IC50, pseudotyped particle entry assay, B.1.1.7 particles: 17.5 nM
[4]
  koff: 0.0017 s⁻¹
  kon: 83000 M⁻¹ s⁻¹
[5]
  koff: 0.0005 s⁻¹
  kon: 73000 M⁻¹ s⁻¹
[6]
  koff: 0.00018 s⁻¹
  kon: 91000 M⁻¹ s⁻¹
[3]
  Kd: 1.9 nM

B3: single-domain antibody RBD-1-2G (VHH)
VHH: B2 chain
notes: also called RBD-1-2G Nb; RBD-1-2G nanobody
[1]
  IC50, pseudotyped particle entry assay, B.1.1.7 particles: 746 nM
[7]
  koff: 0.0011 s⁻¹
  kon: 752000 M⁻¹ s⁻¹
[8]
  Kd: 14.3 nM
[9]
  koff: 0.00024 s⁻¹
  kon: 25400 M⁻¹ s⁻¹
[10]
  koff: 0.0002 s⁻¹
  kon: 29500 M⁻¹ s⁻¹
[11]
  Kd: 9.4 nM
[12]
  Kd: 6.9 nM
